Experimental data published in patent CN113234158A (FUZHOU MAIXIN BIOTECHNOLOGY DEV CO LTD, dated 2021).

Target: T1, TIM3蛋白 (T细胞免疫球蛋白黏液素3) (human, UniProt Q8TDQ0 22-301)
T1 construct: whole, on cells; Endogenous TIM3 in paraffin tissue sections (immunohistochemistry); Species 'human' comes from the abstract; also called T cell immunoglobulin and mucin-3
T1 sequence (looked up): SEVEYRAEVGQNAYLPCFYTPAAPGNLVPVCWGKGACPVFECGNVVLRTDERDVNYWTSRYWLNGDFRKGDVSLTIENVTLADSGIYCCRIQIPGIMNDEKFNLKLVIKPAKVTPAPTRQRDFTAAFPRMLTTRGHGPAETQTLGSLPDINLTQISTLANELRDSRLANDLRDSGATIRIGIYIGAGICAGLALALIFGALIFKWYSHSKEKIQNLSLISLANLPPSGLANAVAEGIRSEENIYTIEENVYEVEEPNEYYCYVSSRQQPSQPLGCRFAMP
Assay: immunohistochemistry on tonsil and appendix tissue chips

B1: 抗TIM3蛋白单克隆抗体 (小鼠杂交瘤细胞株7H2分泌, CGMCC NO 20763) (antibody, V domains shown)
VH: QVQLQESGGDLVKTGGSLKLSCVASGFTFRRYTMSWVRQTPAKRLEWVATIGSGGGDTYYPDTVKGRFTISRDNARSTLFLQMNSLRSEDTARYYCARSSYYYDVDLYYYSMDYWGQGTSVTVSS
VL: DILMTQTPLSLSASLGDRVTISCRASQDIRNCLNWYQQKPDGTVKLLIYYTSTLQSGVPSRFSGSGSGTDYSLTISNLEAEDIATYTCQQYSKIPRTFGGGTTLEIK
notes: also called TIM3(7H2); 本抗体
binding result: binds
